B1: Cytochrome c6 from Synechocystis sp. PCC 6803 (natural protein)
chain: ADLAHGKAIFAGNCAACHNGGLNAINPSKTLKMADLEANGKNSVAAIVAQITNGNGAMPGFKGRISDSDMEDVAAYVLDQAEKGW
modifications: heme covalently linked to two cysteine residues via thioether bonds (CXXCH motif); iron axially coordinated by methionine and histidine
notes: Cytochrome c6, Synechocystis sp; cloned into pET22b with an N-terminal pelB signal peptide; Crystallised only in the reduced form (3 mM beta-mercaptoethanol); The printed residue numbers and the MALDI-TOF mass (9449.297 with heme) fit the mature protein without the native signal peptide
B2: Cytochrome c6 from Synechococcus elongatus sp. PCC 7942 (natural protein, Synechococcus elongatus PCC 7942)
chain: ADLAHGGQVFSANCAACHLGGRNVVNPAKTLQKADLDQYGMASIEAITTQVTNGKGAMPAFGSKLSADDIADVASYVLDQSEKGWQG
modifications: heme covalently linked to two cysteine residues via thioether bonds (CXXCH motif); iron axially coordinated by methionine and histidine
notes: cloned into pET22b with an N-terminal pelB signal peptide; Used reduced (3 mM beta-mercaptoethanol) and oxidised (40-fold molar excess of potassium ferricyanide); The printed residue numbers (Asp2, His5, Ala16) and the MALDI-TOF mass (9714.504 with heme) fit the mature protein without the native signal peptide

Target: the molecule itself
Assay: native gel or EMSA; blue native PAGE (4-13%) of the purified protein; dimer and monomer

Protein | stoichiometry N
B1 | 2
B2 | 2

— article PMC11765882, “A High-Resolution Crystallographic Study of Cytochrome c6: Structural Basis for Electron Transfer in Cyanobacterial Photosynthesis” (International Journal of Molecular Sciences, 2025)
